Experiments:
[1] = molecular target: KLHL22^1–178 (human) (UniProt Q53GT1); assay: SEC-MALS; WTC-015S5 column, low salt buffer; complexes at 2 mg/ml, KLHL22^1–178 and KLHL12^1–161 alone at 3 mg/ml
[2] = molecular target: KLHL12^1–161 (human) (UniProt Q53G59); assay: as above
Chain of KLHL12^1–161 (human) (Q53G59 1-161): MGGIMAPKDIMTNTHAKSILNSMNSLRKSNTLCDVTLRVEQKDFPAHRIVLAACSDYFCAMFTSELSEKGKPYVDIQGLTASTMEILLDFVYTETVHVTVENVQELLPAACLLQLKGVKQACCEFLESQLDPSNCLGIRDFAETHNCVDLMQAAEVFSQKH

Chain of CUL3^Δ1–24-RBX1 (Q13618 25-768, stated change not applied): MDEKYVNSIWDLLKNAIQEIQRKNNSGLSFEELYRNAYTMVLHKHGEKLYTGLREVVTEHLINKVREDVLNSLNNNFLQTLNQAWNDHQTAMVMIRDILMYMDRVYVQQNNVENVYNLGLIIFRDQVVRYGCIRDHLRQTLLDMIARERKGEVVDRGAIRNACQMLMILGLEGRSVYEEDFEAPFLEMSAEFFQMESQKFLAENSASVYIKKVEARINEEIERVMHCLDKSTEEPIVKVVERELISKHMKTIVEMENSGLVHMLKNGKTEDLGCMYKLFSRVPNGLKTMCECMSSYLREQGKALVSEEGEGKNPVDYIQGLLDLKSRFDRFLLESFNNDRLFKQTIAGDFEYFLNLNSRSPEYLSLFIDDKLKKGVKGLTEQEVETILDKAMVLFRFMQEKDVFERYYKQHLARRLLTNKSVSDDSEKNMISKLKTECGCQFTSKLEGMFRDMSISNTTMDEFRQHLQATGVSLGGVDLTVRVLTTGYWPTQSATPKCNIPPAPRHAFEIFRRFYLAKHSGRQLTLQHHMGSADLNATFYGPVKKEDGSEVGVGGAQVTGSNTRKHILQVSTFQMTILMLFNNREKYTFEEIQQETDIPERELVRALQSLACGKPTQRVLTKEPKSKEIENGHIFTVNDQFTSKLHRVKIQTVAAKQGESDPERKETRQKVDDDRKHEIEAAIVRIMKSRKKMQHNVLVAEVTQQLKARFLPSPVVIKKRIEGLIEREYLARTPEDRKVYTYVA
Chain of CUL3^Δ1–24-RBX1 (P62877 whole entry, stated change not applied): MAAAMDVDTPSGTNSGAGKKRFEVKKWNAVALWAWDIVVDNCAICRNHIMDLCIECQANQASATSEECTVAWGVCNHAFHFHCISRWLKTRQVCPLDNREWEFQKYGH
Chain of KLHL22^1–178 (human) (Q53GT1 1-178): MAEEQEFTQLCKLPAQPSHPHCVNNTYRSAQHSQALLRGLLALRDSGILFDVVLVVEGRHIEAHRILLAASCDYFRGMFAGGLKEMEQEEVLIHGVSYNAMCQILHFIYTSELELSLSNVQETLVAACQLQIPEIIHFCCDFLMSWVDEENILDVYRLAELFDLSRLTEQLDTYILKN
Chain of CUL3^WT-RBX1 (Q13618 whole entry): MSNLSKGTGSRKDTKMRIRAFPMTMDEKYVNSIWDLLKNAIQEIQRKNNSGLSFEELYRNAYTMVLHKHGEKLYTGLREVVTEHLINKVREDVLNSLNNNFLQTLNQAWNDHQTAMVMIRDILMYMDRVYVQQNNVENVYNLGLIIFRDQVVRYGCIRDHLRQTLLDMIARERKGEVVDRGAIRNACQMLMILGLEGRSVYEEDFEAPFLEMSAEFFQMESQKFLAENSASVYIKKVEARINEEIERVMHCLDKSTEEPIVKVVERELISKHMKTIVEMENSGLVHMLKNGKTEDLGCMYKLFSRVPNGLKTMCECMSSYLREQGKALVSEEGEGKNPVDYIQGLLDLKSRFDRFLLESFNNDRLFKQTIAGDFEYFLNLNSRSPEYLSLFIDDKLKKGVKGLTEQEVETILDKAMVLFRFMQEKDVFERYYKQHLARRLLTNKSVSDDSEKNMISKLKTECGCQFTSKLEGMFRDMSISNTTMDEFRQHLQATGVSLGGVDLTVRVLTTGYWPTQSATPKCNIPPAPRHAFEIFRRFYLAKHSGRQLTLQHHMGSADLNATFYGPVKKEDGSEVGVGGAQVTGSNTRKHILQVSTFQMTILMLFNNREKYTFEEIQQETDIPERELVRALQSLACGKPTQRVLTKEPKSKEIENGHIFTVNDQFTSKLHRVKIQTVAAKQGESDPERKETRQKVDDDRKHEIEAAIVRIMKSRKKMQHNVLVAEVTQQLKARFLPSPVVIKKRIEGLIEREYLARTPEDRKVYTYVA
Chain of CUL3^WT-RBX1 (P62877 whole entry): as the sequence (P62877 whole entry, stated change not applied) above

stoichiometry N (CUL3-RBX1 per KLHL22^1–178 dimer) [1]	stoichiometry N (CUL3-RBX1 per KLHL12^1–161 dimer) [2]	Substance
2		CUL3^WT-RBX1 (from UniProt Q13618 1-768; P62877 1-108) (complex)
1	1	CUL3^Δ1–24-RBX1 (from UniProt Q13618 25-768; P62877 1-108) (complex)

Reference: publication PMC11074293
